Results on eight molecules are retold here after patent US20170240637A1 (Memorial Sloan Kettering, published 2017).

Positions count from the first letter of the chain named.

Test [1] addresses T1, wild type 2Ig-B7H3-mFc (human, UniProt Q5ZPR3-2 29-248, limits assumed).
T1 construct: Q5ZPR3 canonical entry is the 4Ig isoform; the 2Ig form is its shorter isoform; also called 2Ig-B7H3-Fc; WT 2Ig-B7H3-Fc; not shown: mouse Fc
T1 sequence (looked up): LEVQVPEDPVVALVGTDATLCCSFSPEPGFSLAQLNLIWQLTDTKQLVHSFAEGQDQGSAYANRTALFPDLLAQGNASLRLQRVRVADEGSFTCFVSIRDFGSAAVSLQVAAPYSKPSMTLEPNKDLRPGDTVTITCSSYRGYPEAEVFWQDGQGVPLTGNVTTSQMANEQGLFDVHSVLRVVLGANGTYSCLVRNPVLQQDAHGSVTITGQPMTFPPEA
The experiment in a line: SPR, 400 nM antibody over immobilized WT 2Ig-B7H3-mFc. Background: Surface plasmon resonance follows binding to a sensor surface in real time, without labels.

For test [2], the target named is 2Ig-B7H3-mFc mutant D128A (human) (UniProt Q5ZPR3). The experiment in a line: SPR, 400 nM antibody over immobilized D128A mutant.
The target of test [3] is T2, 2Ig-B7H3-mFc mutant R127A (human, UniProt Q5ZPR3-2 29-248, limits assumed).
T2 construct: not shown: mouse Fc
T2 sequence (looked up): T1 sequence (looked up) with R99A
Kind of test: SPR, 400 nM antibody over immobilized R127A mutant.

For test [4], the target named is T3, 4Ig-B7H3 (human, UniProt Q5ZPR3 27-461, limits assumed).
T3 construct: also called 4Ig-B73H3
T3 sequence (looked up): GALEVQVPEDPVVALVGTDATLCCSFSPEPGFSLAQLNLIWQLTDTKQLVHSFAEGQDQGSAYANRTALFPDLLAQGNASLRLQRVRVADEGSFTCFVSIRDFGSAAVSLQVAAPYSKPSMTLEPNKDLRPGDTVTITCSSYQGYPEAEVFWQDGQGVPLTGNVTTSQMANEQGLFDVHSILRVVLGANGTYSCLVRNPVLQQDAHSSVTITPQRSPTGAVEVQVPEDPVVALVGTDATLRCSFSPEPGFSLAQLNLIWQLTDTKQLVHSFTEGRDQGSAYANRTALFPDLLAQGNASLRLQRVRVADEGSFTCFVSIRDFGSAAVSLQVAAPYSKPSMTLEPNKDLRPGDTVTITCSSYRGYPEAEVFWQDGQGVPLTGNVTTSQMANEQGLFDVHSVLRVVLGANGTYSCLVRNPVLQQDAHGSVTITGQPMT
Kind of test: SPR (Biacore T-100), 4Ig-B7H3 on CM5 chip, scFv injected. On the procedure:
(§1) In brief, B7H3 antigen (either 2Ig-B7H3, 4Ig-B7H3, 2Ig-B7H3-mFc, 4Ig-B7H3-mFc), was directly immobilized onto the CM5 sensor chip via […]. Reference surface was set up for nonspecific binding and refractive index changes. For analysis of the kinetics of interactions, varying concentrations of scFvs were injected at flow rate of 30 μl/min using running buffer containing 10 mM HEPES, 150 mM NaCl, 3 mM EDTA, and 0.05% Surfactant P-20 (pH 7.4). The association and dissociation phase data were fitted simultaneously to a 1:1 model by using BIAevaluation 3.2. All the experiments were done at 25° C.

The target in test [5] is T4, 2Ig-B7H3 without Fc fusion (human, UniProt Q5ZPR3-2 29-245, limits assumed).
T4 construct: also called 2IgB7H3 (R&D)
T4 sequence (looked up): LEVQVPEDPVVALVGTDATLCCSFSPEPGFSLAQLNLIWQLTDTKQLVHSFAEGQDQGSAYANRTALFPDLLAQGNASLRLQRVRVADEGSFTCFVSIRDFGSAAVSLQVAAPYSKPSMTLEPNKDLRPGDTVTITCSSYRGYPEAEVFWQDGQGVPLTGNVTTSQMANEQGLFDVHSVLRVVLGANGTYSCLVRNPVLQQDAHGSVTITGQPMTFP
The experiment in a line: ELISA, right panel '2IgB7H3', scFv serially diluted 0.01-10 µg/ml. On the procedure: B7H3-mFc (100 ng/well) or 2IgB7H3 (R&D, Minneapolis, Minn.) (25 ng/well) were coated on polyvinyl microtiter plates in PBS overnight. Plates were then blocked with 0.5% BSA in PBS at 150 μl per well for 1 h at room temperature. Antibodies were added in triplicates with serial dilution in 0.5% BSA. Following incubation for 1 h at room temperature and washing with PBS, HRP-mouse anti-human Fc antibody, HRP-streptavidin, or HRP-mouse anti-Flag antibody was added. After incubation for 1 h at room temperature and further washing, the color was developed and quantified using an ELISA plate reader at 490 nm.

In test [6] the target is T4, 2Ig-B7H3 without Fc fusion. The experiment in a line: SPR, IgG on 2Ig-B7-H3 without Fc fusion. On the procedure: (§2) In brief, B7H3 antigen (either 2Ig-B7H3, 4Ig-B7H3, 2Ig-B7H3-mFc, 4Ig-B7H3-mFc), was directly immobilized onto the CM5 sensor chip via […]. Reference surface was set up for nonspecific binding and refractive index changes. […] The association and dissociation phase data were fitted simultaneously to a 1:1 model by using BIAevaluation 3.2. All the experiments were done at 25° C.

The target of test [7] is B7H3 on B7H3-positive human tumor cells (M14, LAN-1, IMR-32, HeLa) (human) (UniProt Q5ZPR3). The experiment in a line: cell-binding assay of 131I-labelled antibody on LAN-1 cells.
Test [8] shares this target. Kind of test: cell-based or functional assay.
Test [9] has as its target T3, 4Ig-B7H3. The experiment in a line: SPR, IgG on 4Ig-B7-H3 without Fc fusion. On the procedure: as §2
Test [10] has as its target T4, 2Ig-B7H3 without Fc fusion. The experiment in a line: SPR.
Test [11] has as its target T3, 4Ig-B7H3. Kind of test: SPR.
The target in test [12] is T3, 4Ig-B7H3. Kind of test: SPR, antigen on CM5 chip. On the procedure: as §1
For test [13], the target named is T5, 4Ig-B7H3 fused to mouse Fc (B7H3-mFc) (human, UniProt Q5ZPR3 29-466, limits assumed, biotinylated on primary amines (NHS-biotin) in the experiment of paragraph 316).
T5 construct: Expressed in DG44 CHO cells; also called 4Ig-B7H3-Fc; 4Ig-B7H3-mFc; not shown: mouse Fc
T5 sequence (looked up): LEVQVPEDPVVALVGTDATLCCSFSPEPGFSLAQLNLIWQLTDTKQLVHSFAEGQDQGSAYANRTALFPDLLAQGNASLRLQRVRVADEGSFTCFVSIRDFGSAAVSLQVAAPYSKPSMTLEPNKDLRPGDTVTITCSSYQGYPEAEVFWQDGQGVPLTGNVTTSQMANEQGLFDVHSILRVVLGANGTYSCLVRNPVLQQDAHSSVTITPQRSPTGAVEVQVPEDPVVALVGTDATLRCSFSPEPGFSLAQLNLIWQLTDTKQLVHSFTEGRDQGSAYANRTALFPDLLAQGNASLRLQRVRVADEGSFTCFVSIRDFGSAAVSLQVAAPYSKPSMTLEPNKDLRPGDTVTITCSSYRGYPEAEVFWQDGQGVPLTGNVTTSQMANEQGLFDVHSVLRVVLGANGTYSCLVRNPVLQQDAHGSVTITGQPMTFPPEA
The experiment in a line: SPR, IgG on 4Ig-B7H3-Fc. On the procedure: as §2

Test [14] has as its target T1, wild type 2Ig-B7H3-mFc. The experiment in a line: SPR, IgG on 2Ig-B7H3-mFc. On the procedure:
as §2

Test [15] deals with T1, wild type 2Ig-B7H3-mFc. The experiment in a line: SPR, antigen on CM5 chip. On the procedure:
as §1

The molecule “anti-B7H3 MAb MIH42 (Thermo Scientific Pierce) (antibody)” had a Max RU in test [1] of 2530 RU. Moreover, the Relative binding (to WT) is 68.8% in [2] and 76.1% in test [3].

B1: hu8H9 clone S3.3 scFv (scFv)
scFv: QVQLVQSGAEVVKPGASVKLSCKTSGYTFTNYDINWVRQRPGQGLEWIGWIFPGDGSTQYNEKFKGKATLTTDTSTSTAYMELSSLRSEDTAVYFCARQTTATWFAYWGQGTLVTVSSGGGGSGGGGSGGGGSEIVMTQSPATLSVSPGERVTLSCRASQSISDYLYWYQQKSHESPRLLIKYASQSISGIPARFSGSGSGSEFTLTINSVEPEDVGVYYCQNGHSFPLTFGQGTKLELKR
notes: also called Sort3; not shown: FLAG and His tags
Broadly, the Kd is the constant that tells how readily two partners part at equilibrium. High values mean lower affinity, low ones higher affinity. In general, koff refers to the first-order rate constant of dissociation. As usually defined, the kon is a measure of how fast the partners come together. One may read the EC50 (read off the curve) as the concentration at which the effect is half-maximal. A low value points to greater potency. In [4], B1 returned a Kd of 9.85 nM, a koff of 0.000244 s⁻¹ and a kon of 24800 M⁻¹ s⁻¹. Moreover, the “EC50 (read off the curve)” value in test [5] is ~0.2 µg/mL.

B2: ch8H9 6.1 IgG (ch8H9 + 6 affinity maturation mutations) (antibody, V domains shown)
VH: QVQLQQSGAELVKPGASVKLSCKTSGYTFTNYDINWVRQRPGQGLEWIGWIFPGDDSTQYNEKFKGKATLTTDTSSSTAYMQLSRLTSEDSAVYFCARQTTGTWFAYWGQGTLVTVSA
VL: DIVMTQSPATLSVTPGDRVTLSCRASQSISDYLYWYQQKSHESPRLLIKYASQSISGIPSRFSGSGSGSDFTLSINSVEPEDVGVYYCQNGHSFPLTFGAGTKLELKR
In test [6], B2 showed a Kd of 0.62 nM, a koff of 4.25e-05 s⁻¹ and a kon of 68900 M⁻¹ s⁻¹. In addition, the in vitro immunoreactivity in [7] was 73%. Moreover, in test [8], the ADCC EC50 (µg/ml), 51Cr release, LAN-1 targets, human PBMC effectors was 0.1 µg/mL and the Fold change EC50 relative to ch8H9 (ADCC) is 14 fold. Further, in [9], the Kd stood at 3.7 nM, the koff is 0.000123 s⁻¹ and the kon came out at 33500 M⁻¹ s⁻¹. Besides, the “fold enhancement in binding relative to ch8H9” value in [10] fell in the range of 2 to 4 fold. The “fold enhancement in binding relative to ch8H9” value in test [11] was in the range of 2 to 4 fold.

B3: hu8H9-H1L2 IgG1 (antibody, V domains shown)
VH: QVQLVQSGAEVKKPGASVKLSCKASGYTFTNYDINWVRQAPGQGLEWIGWIFPGDGSTQYNEKFKGKATLTTDTSTSTAYMELSSLRSEDTAVYFCARQTTATWFAYWGQGTLVTVSS
VL: B2 VL with D1E, T14S, D17E, Y34H, S60A, S69T, D70E, S74T, A100Q, L106I
As to B3, in [12], the Kd is 34.8 nM. In addition, in test [13], binding was characterised by a dissociation constant (Kd) of 42.7 nM, the koff turned out to be 0.0239 s⁻¹ and the kon worked out at 560000 M⁻¹ s⁻¹. In test [14], this molecule yielded a Kd of 68.4 nM, a koff of 0.00116 s⁻¹ and a kon of 17000 M⁻¹ s⁻¹.

B4: murine 8H9 (m8H9) IgG1 monoclonal antibody (antibody, V domains shown)
VH: B2 VH with T24A, G42E, D56G, G102A
VL: DIVMTQSPATLSVTPGDRVSLSCRASQSISDYLHWYQQKSHESPRLLIKYASQSISGIPSRFSGSGSGSDFTLSINSVEPEDVGVYYCQNGHSFPLTFGAGTKLELK
modifications: 131I-labelled in the LAN-1 immunoreactivity assay; the label is not carried by the letters.
notes: also called MAb 8H9
As for B4, in test [6], the Kd stood at 0.81 nM, the koff was found to be 2.24e-05 s⁻¹ and the kon was determined as 27800 M⁻¹ s⁻¹. In test [7], the in vitro immunoreactivity was determined as 69%. In addition, in test [15], binding was put at a Kd of 0.28 nM, the dissociation rate constant (koff) was 1.03e-05 s⁻¹ and the kon was 36700 M⁻¹ s⁻¹. Besides, in test [9], the Kd stood at 8.9 nM, the koff was 0.000165 s⁻¹ and the kon is 18500 M⁻¹ s⁻¹.

B5: hu8H9-H2L1 IgG1 (antibody, V domains shown)
VH: B3 VH with K12V, S85R, R87T
VL: EIVMTQSPATLSVSPGERVTLSCRASQSISDYLHWYQQKPGQAPRLLIKYASQSISGIPARFSGSGSGTEFTLTISSVQPEDVGVYYCQNGHSFPLTFGQGTKLEIKR
The molecule B5 yielded a Kd in test [12] of 34.8 nM.

B6: hu8H9-H2L2 IgG1 (antibody, V domains shown)
VH: B3 VH with K12V, S85R, R87T
VL: B5 VL with P40S, G41H, Q42E, A43S, S76N, Q79E
In [12], B6 came in with a Kd of 38.6 nM.

B7: hu8H9-H1L1 IgG1 (antibody, V domains shown)
VH: B3 VH
VL: B5 VL
The molecule B7 came in with a Kd in [12] of 112 nM.
